# Target: Sp1 (UniProt P08047 P08047:2-785)
# Assay: EMSA; 5 mM DTT, 1 ug/ml poly(dI-dC); binding reduced 20% by GST-huntingtin Q20 and 70% by Q51; competed by 50-fold unlabelled probe
# Details: tags: purified Sp1, Promega; label: labeled (autoradiography)
# Protocol: Chem. 273:26218, 1998) except that 5 mM DTT and 1 μg/ml poly(dI-dC) were used. GST-huntingtin fusions (0.2 μg/ul) were a gift of E. Wanker and were purified as described (J. S. Steffan et al., Nature 413:739, 2001). An approximate 1:1 ratio of purified proteins was used. Coomassie blue staining and Western blotting were used to examine the purified proteins.
# Binding of Sp1 to a labeled consensus Sp1 site is shown in lane 1, and competition with a 50-fold molar excess of unlabelled probe is shown in lane 2 (plus sign). Incubation of Sp1 in the presence of GST-huntingtin with 20 glutamines (Qs) led to a 20% reduction in Sp1 binding (lane 3), whereas huntingtin with 51 Qs inhibited Sp1 binding by 70% (lane 4). The Sp1/DNA complex was identified with anti-Sp1 and is indicated by an arrow in all panels. […] Primary striatal cells were transfected with wild-type (HttQ 17) or mutant (HttQ75) huntingtin. EMSA was performed with a labeled D2 promoter fragment containing a Sp1 binding site. […] In competition experiments, a 100-fold molar excess of double-stranded nonradioactive oligonucleotide was used (lanes 2 and 4). […] EMSA was performed with nuclear extracts isolated from presymptomatic grade 1 and grade 4 HD brain tissue as described above herein. […] Competition experiments were performed as in (FIG. 2B) (lane 2). […] EMSA was performed as in FIG. 2C. […]
# Sp1, sequence (P08047 2-785, one chain of several): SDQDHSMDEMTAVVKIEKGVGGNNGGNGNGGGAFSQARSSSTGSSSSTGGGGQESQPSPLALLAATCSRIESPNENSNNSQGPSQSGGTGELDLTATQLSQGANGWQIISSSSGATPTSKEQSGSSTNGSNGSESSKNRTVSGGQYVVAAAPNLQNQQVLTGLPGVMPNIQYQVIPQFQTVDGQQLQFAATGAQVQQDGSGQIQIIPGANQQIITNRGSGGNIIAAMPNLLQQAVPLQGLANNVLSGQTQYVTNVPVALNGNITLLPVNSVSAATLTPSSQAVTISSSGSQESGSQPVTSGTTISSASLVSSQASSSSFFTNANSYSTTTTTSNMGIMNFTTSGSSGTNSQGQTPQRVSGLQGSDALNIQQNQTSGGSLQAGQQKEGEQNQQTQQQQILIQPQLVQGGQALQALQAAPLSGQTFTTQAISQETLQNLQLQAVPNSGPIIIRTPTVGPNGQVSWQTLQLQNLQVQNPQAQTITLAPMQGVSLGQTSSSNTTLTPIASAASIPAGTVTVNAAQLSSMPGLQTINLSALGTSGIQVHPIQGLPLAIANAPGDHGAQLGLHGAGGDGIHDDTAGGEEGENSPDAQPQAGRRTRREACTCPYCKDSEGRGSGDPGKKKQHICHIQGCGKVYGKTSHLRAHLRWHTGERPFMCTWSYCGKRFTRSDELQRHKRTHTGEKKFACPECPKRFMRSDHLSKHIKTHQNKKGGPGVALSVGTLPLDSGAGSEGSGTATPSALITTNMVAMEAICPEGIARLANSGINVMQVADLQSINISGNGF
binder,measurement,value
Sp1 consensus site probe (dsDNA) DNA 1: ATTCGATCGGGGCGGGGCGAGC DNA 2: GCTCGCCCCGCCCCGATCGAAT,binding result,binds

# — US20040213780, “Methods and compositions for treating polyglutamine expansion-associated disease” (published 2004)
